Data on one molecule can be found in patent US20100028924A1, “Method Of Diagnosing Pon1-Hdl Associated Lipid Disorders” (Rappaport Family Institute Research in the Medical Sciences, priority 2006, published 2010).

The nature of data set [1]: Dihydrocoumarin hydrolysis by PON1 isozymes (Vmax). It is filed as biochemical. The note with it: Vmax^Q=1.125*Vmax^R. How it is done:
Determination of a total PON1 level may be effected by any method known in the art. For example, the level of total PON1 may be determined using an antibody specific for PON1. Preferably, the level of total PON1 is determined by measuring the level of total enzymatically active PON1. Thus for example, the level of total PON1 may be measured using an ELISA assay. Such assays are known in the art—see for example Blatter et al, Biochem J 304 (Pt 2): 549-554. An exemplary method for measuring total PON1's serum concentration comprises assaying PON1 dihydrocoumarin hydrolysis as described in Example 3.

The test system of data set [2] is apoA-I rHDL. Briefly: Inactivation kinetics of human PON1 192 isozymes on rHDL-apoA-I (NTA/β-mercaptoethanol). The class given is biochemical. The note with it: 50-fold molar excess rHDL-apoA-I; NTA and β-mercaptoethanol each 5 mM, 25° C. How it is done: FIGS. 5A-B are graphs showing the inactivation and catalytic stimulation of the human PON1 192R/Q isozymes. FIG. 5A is a line graph showing the inactivation kinetics of human PON1-192R and -192Q in the presence of rHDL-apoA-I. The delipidated isozymes (0.2 μM) were incubated with a 50-fold molar excess of rHDL-apoA-I in activity buffer, and subjected to inactivation by NTA and β-mercaptoethanol (each at 5 mM) at 25° C. Residual activity determined as above (FIG. 1) and data were fitted to a double-exponential function. FIG. 5B is a bar graph showing stimulation of the enzymatic activity of human PON1-192R and -192Q by rHDL-apoA-I. The delipidated isozymes were incubated with a 50-fold molar excess of rHDL-apoA-I, and enzymatic activity was determined with various substrates (at 1 mM for all the substrates, except TBBL at 0.25 mM). The activity is presented in relation to the initial activity of the delipidated enzymes (percentage of stimulation). Each bar represents the mean and S.D. of at least two independent measurements;
Human PON1-192R and Q isozymes purified from pooled blood samples [Gan, K. N., et al., Drug Metab Dispos, 1991. 19(1): p. 100-6] were kindly provided by Dr. Dragomir Draganov (University of Michigan, Ann Arbour), and stored in presence of 0.1% tergitol and 20% glycerol. Prior to assay, these samples were briefly delipidated [Gaidukov, L. and D. S. Tawfik, Biochemistry, 2005. 44(35): p. 11843-54] and dialyzed against activity buffer to remove the tergitol and glycerol that interfere with HDL binding. Dialyzed samples (0.2 μM) were incubated with rHDL (10 μM). Stability assays were performed at 25° C., in activity buffer supplemented with nitrilotriacetic acid (NTA) and β-mercaptoethanol, both at 5 mM. Data analysis was performed as described above for rePON1s. Stimulation of enzymatic activities was measured with various substrates at 1 mM concentration, except for TBBL (0.25 mM).
The progress of inactivation of human PON1 isozymes anchored on rHDL-apoA-I is illustrated in FIG. 5A. Inactivation of both isozymes followed a two-phase kinetics with similar inactivation rates, but different partitioning between the HDL-bound and unbound phases, as detailed in Table 4 hereinbelow. Amplitudes (A) and kinetic rates of inactivation (k^inactiv) were derived by fitting the data to a double-exponential curve.

B1: human PON1-192Q: human PON1 192Q isozyme purified from pooled blood samples (protein)
chain: AKLIALTLLGMGLALFRNHQSSYQTRLNALREVQPVELPNCNLVKGIETGSEDLEILPNGLAFISSGLKYPGIKSFNPNSPGKILLMDLNEEDPTVLELGITGSKFDVSSFNPHGISTFTDEDNAMYLLVVNHPDAKSTVELFKFQEEEKSLLHLKTIRHKLLPNLNDIVAVGPEHFYGTNDHYFLDPYLQSWEMYLGLAWSYVVYYSPSEVRVVAEGFDFANGINISPDGKYVYIAELLAHKIHVYEKHANWTLTPLKSLDFNTLVDNISVDPETGDLWVGCHPNGMKIFFYDSENPPASEVLRIQNILTEEPKVTQVYAENGTVLQGSTVASVYKGKLLIGTVFHKALYCEL
As to B1, in data set [1], the “ratio of Vmax of PON1-192Q and -192R isozymes toward dihydrocoumarin” value was 1.125. In data set [2], the “A2(%) (slow phase, HDL-bound fraction)” value is reported as 72%; the “k1^inactiv (first, fast phase)” value was 0.6 h⁻¹; the “k2^inactiv (second, slow phase)” value was 0.01 h⁻¹.
